{
  "source": "paper PMC7155059",
  "about": "“Kinetic characterisation of Erv1, a key component for protein import and folding in yeast mitochondria” (The Febs Journal, 2019)",
  "proteins": {"B1": {"name": "Erv1 (yeast Erv1) (Saccharomyces cerevisiae S288C) (protein)", "chain": "MKAIDKMTDNPPQEGLSGRKIIYDEDGKPCRSCNTLLDFQYVTGKISNGLKNLSSNGKLAGTGALTGEASELMPGSRTYRKVDPPDVEQLGRSSWTLLHSVAASYPAQPTDQQKGEMKQFLNIFSHIYPCNWCAKDFEKYIRENAPQVESREELGRWMCEAHNKVNKKLRKPKFDCNFWEKRWKDGWDE", "notes": "WT, ERV1 gene in pET-24a(+), E. coli Rosetta-gami 2, Ni-NTA then size exclusion"}},
  "substrate": "OC(CS)C(O)CS",
  "test": "oxygen consumption, Clark-type electrode",
  "format": "biochemical, Saccharomyces cerevisiae",
  "details": "electron donor, co-substrate O2 (air, ~250 μM), 1 μM Erv1, SOD1 10 units/mL, 50 mM Tris/HCl, 150 mM NaCl, 1 mM EDTA, pH 7.4, 25 °C",
  "data": [
    {"protein": "B1", "values": [
      {"measurement": "Km", "result": "1500 ± 100", "unit": "µM"},
      {"measurement": "kcat", "result": "1.28 ± 0.03", "unit": "s⁻¹"}
    ]}
  ]
}
